Measurements reported in patent US20190177370A1 (TOKYO UNIVERSITY OF PHARMACY AND LIFE SCIENCES, published 2019).
Square brackets hold non-standard residues; d marks the D form. Primed or numbered codes have the meaning given here. * marks the point of attachment. m‑dPEG(4)″ = m-dPEG(4) acid, coupled to Acp (R^111 group of Formula (4)), COCCOCCOCCOCCC(=O)*; m‑dPEG(4) = m-dPEG(4) acid, coupled to Acp, with Acp forms R^111 of Formula (4); 2Nal = N[C@@H](Cc1ccc2ccccc2c1)C(=O)O; Cha = N[C@@H](CC1CCCCC1)C(=O)O; Chg = N[C@H](C(=O)O)C1CCCCC1; Nva = CCC[C@H](N)C(=O)O; Ahx = NCCCCCC(=O)O

T1: myostatin (UniProt O14793 267-375, limits assumed)
T1 sequence (looked up): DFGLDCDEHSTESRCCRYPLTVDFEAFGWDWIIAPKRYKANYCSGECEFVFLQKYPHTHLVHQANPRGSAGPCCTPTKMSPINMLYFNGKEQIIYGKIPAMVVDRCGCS


Molecular target: T1, myostatin
Test: cell-based or functional assay

Binder	myostatin inhibitory activity at 1 µM (luciferase reporter assay) [% inhibition]	myostatin inhibitory activity at 0.3 µM (luciferase reporter assay) [% inhibition]
{m‑dPEG(4)″-Ahx}-W[2Nal]IEWIKIQIISKLRL-NH2 (SMILES CC[C@H](C)[C@H](NC(=O)[C@H](Cc1ccc2ccccc2c1)NC(=O)[C@H](Cc1c[nH]c2ccccc12)NC(=O)CCCCCNC(=O)CCOCCOCCOCCOC)C(=O)N[C@@H](CCC(=O)O)C(=O)N[C@@H](Cc1c[nH]c2ccccc12)C(=O)N[C@H](C(=O)N[C@@H](CCCCN)C(=O)N[C@H](C(=O)N[C@@H](CCC(N)=O)C(=O)N[C@H](C(=O)N[C@H](C(=O)N[C@@H](CO)C(=O)N[C@@H](CCCCN)C(=O)N[C@@H](CC(C)C)C(=O)N[C@@H](CCCNC(=N)N)C(=O)N[C@@H](CC(C)C)C(N)=O)[C@@H](C)CC)[C@@H](C)CC)[C@@H](C)CC)[C@@H](C)CC) [PDM-38]	≥ 40	–
{m‑dPEG(4)-Ahx}-YWIEWIKIQIISKLRL-NH2 [PDM-28]	≥ 40	–
{m‑dPEG(4)-Ahx}-LYIEWIKIQIISKLRL-NH2 [PDM-34]	≥ 40	–
{m‑dPEG(4)-Ahx}-WLIEWIKIQIISKLRL-NH2 [PDM-40]	≥ 40	–
{m‑dPEG(4)-Ahx}-WYIELIKIQIISKLRL-NH2 [PDM-45]	≥ 40	–
{m‑dPEG(4)-Ahx}-WYIERIKIQIISKLRL-NH2 [PDM-47]	≥ 40	–
{m‑dPEG(4)-Ahx}-WFIEWIKIQIISKLRL-NH2 [PDM-37]	≥ 40	–
{m‑dPEG(4)-Ahx}-HYIEWIKIQIISKLRL-NH2 [PDM-35]	≥ 40	–
{m‑dPEG(4)-Ahx}-WSIEWIKIQIISKLRL-NH2 [PDM-43]	≥ 40	–
{m‑dPEG(4)-Ahx}-WRIEWIKIQIISKLRL-NH2 [PDM-42]	≥ 40	–
{m‑dPEG(4)″-Ahx}-W[Cha]IEWIKIQIISKLRL-NH2 (SMILES CC[C@H](C)[C@H](NC(=O)[C@H](CC1CCCCC1)NC(=O)[C@H](Cc1c[nH]c2ccccc12)NC(=O)CCCCCNC(=O)CCOCCOCCOCCOC)C(=O)N[C@@H](CCC(=O)O)C(=O)N[C@@H](Cc1c[nH]c2ccccc12)C(=O)N[C@H](C(=O)N[C@@H](CCCCN)C(=O)N[C@H](C(=O)N[C@@H](CCC(N)=O)C(=O)N[C@H](C(=O)N[C@H](C(=O)N[C@@H](CO)C(=O)N[C@@H](CCCCN)C(=O)N[C@@H](CC(C)C)C(=O)N[C@@H](CCCNC(=N)N)C(=O)N[C@@H](CC(C)C)C(N)=O)[C@@H](C)CC)[C@@H](C)CC)[C@@H](C)CC)[C@@H](C)CC) [PDM-39]	≥ 40	–
{m‑dPEG(4)-Ahx}-WHIEWIKIQIISKLRL-NH2 [PDM-41]	≥ 40	–
{m‑dPEG(4)-Ahx}-WYIESIKIQIISKLRL-NH2 [PDM-46]	≥ 40	–
{m‑dPEG(4)″-Ahx}-WYIE[2Nal]IKIQIISKLRL-NH2 (SMILES CC[C@H](C)[C@H](NC(=O)[C@H](Cc1ccc(O)cc1)NC(=O)[C@H](Cc1c[nH]c2ccccc12)NC(=O)CCCCCNC(=O)CCOCCOCCOCCOC)C(=O)N[C@@H](CCC(=O)O)C(=O)N[C@@H](Cc1ccc2ccccc2c1)C(=O)N[C@H](C(=O)N[C@@H](CCCCN)C(=O)N[C@H](C(=O)N[C@@H](CCC(N)=O)C(=O)N[C@H](C(=O)N[C@H](C(=O)N[C@@H](CO)C(=O)N[C@@H](CCCCN)C(=O)N[C@@H](CC(C)C)C(=O)N[C@@H](CCCNC(=N)N)C(=O)N[C@@H](CC(C)C)C(N)=O)[C@@H](C)CC)[C@@H](C)CC)[C@@H](C)CC)[C@@H](C)CC) [PDM-44]	≥ 40	–

More lines, now with the values ahead:

myostatin inhibitory activity at 1 µM (luciferase reporter assay) [% inhibition]	myostatin inhibitory activity at 0.3 µM (luciferase reporter assay) [% inhibition]	Binder
≥ 40	–	{m‑dPEG(4)″-Ahx}-WYIEWIKIQI[Chg]SKLRL-NH2 (SMILES CC[C@H](C)[C@H](NC(=O)[C@H](Cc1ccc(O)cc1)NC(=O)[C@H](Cc1c[nH]c2ccccc12)NC(=O)CCCCCNC(=O)CCOCCOCCOCCOC)C(=O)N[C@@H](CCC(=O)O)C(=O)N[C@@H](Cc1c[nH]c2ccccc12)C(=O)N[C@H](C(=O)N[C@@H](CCCCN)C(=O)N[C@H](C(=O)N[C@@H](CCC(N)=O)C(=O)N[C@H](C(=O)N[C@H](C(=O)N[C@@H](CO)C(=O)N[C@@H](CCCCN)C(=O)N[C@@H](CC(C)C)C(=O)N[C@@H](CCCNC(=N)N)C(=O)N[C@@H](CC(C)C)C(N)=O)C1CCCCC1)[C@@H](C)CC)[C@@H](C)CC)[C@@H](C)CC) [PDM-53]
≥ 40	–	{m‑dPEG(4)-Ahx}-WRIESIKIQIISKLRL-NH2 [PDM-62]
≥ 40	≥ 40	H-WYIRWIK[Chg]QIWSKLRL-NH2 (SMILES CC[C@H](C)[C@H](NC(=O)[C@H](CCC(N)=O)NC(=O)[C@@H](NC(=O)[C@H](CCCCN)NC(=O)[C@@H](NC(=O)[C@H](Cc1c[nH]c2ccccc12)NC(=O)[C@H](CCCNC(=N)N)NC(=O)[C@@H](NC(=O)[C@H](Cc1ccc(O)cc1)NC(=O)[C@@H](N)Cc1c[nH]c2ccccc12)[C@@H](C)CC)[C@@H](C)CC)C1CCCCC1)C(=O)N[C@@H](Cc1c[nH]c2ccccc12)C(=O)N[C@@H](CO)C(=O)N[C@@H](CCCCN)C(=O)N[C@@H](CC(C)C)C(=O)N[C@@H](CCCNC(=N)N)C(=O)N[C@@H](CC(C)C)C(N)=O) [nPDM-64]
≥ 40	–	H-WYIESIKIQIISKLRL-NH2 [nPDM-46]
≥ 40	–	{m‑dPEG(4)-Ahx}-YYIESIKIQIISKLRL-NH2 [PDM-61]
–	≥ 40	H-WYIQWIKIQIWSKLRL-NH2 [nPDM-55/E31Q]
≥ 40	–	{m‑dPEG(4)-Ahx}-WYIEHIKIQIISKIRL-NH2 [PDM-51]
≥ 40	–	H-WYIESIKIQIWSKLRL-NH2 [nPDM-63]
≥ 40	–	{m‑dPEG(4)-Ahx}-WYIEFIKIQIISKIRL-NH2 [PDM-49]
–	≥ 40	H-WYIKWIKIQIWSKLRL-NH2 [nPDM-55/E31K]
≥ 40	–	{m‑dPEG(4)-Ahx}-WYIEYIKIQIISKIRL-NH2 [PDM-50]
–	≥ 40	H-WYIRWIKIQIWSKLRL-NH2 [nPDM-55/E31R]
≥ 40	–	{m‑dPEG(4)″-Ahx}-WYIEWIKIQI[Nva]SKLRL-NH2 (SMILES CCC[C@H](NC(=O)[C@@H](NC(=O)[C@H](CCC(N)=O)NC(=O)[C@@H](NC(=O)[C@H](CCCCN)NC(=O)[C@@H](NC(=O)[C@H](Cc1c[nH]c2ccccc12)NC(=O)[C@H](CCC(=O)O)NC(=O)[C@@H](NC(=O)[C@H](Cc1ccc(O)cc1)NC(=O)[C@H](Cc1c[nH]c2ccccc12)NC(=O)CCCCCNC(=O)CCOCCOCCOCCOC)[C@@H](C)CC)[C@@H](C)CC)[C@@H](C)CC)[C@@H](C)CC)C(=O)N[C@@H](CO)C(=O)N[C@@H](CCCCN)C(=O)N[C@@H](CC(C)C)C(=O)N[C@@H](CCCNC(=N)N)C(=O)N[C@@H](CC(C)C)C(N)=O) [PDM-52]
≥ 40	≥ 40	{m‑dPEG(4)-Ahx}-WYIESIKIQIWSKLRL-NH2 [PDM-63]
≥ 40	≥ 40	H-WYIEWIKIQIWSKLRL-NH2 [nPDM-55]
≥ 40	≥ 40	{m‑dPEG(4)-Ahx}-WYIEWIKIQIWSKLRL-NH2 [PDM-55]
≥ 40	–	{m‑dPEG(4)-Ahx}-WYIEWIKIQIFSKLRL-NH2 [PDM-54]
≥ 40	–	{m‑dPEG(4)-Ahx}-WYIEWIKIQIYSKLRL-NH2 [PDM-56]
